Assay results reported in IntAct's records for PubMed 12093730.

B1: Guanine nucleotide exchange factor SopE (Salmonella typhimurium), O52623 (parent)
chain: MTKITLSPQNFRIQKQETTLLKEKSTEKNSLAKSILAVKNHFIELRSKLSERFISHKNTESSATHFHRGSASEGRAVLTNKVVKDFMLQTLNDIDIRGSASKDPAYASQTREAILSAVYSKNKDQCCNLLISKGINIAPFLQEIGEAAKNAGLPGTTKNDVFTPSGAGANPFITPLISSANSKYPRMFINQHQQASFKIYAEKIIMTEVAPLFNECAMPTPQQFQLILENIANKYIQNTP

Variants of: B1
Details: with cdc42_human CDC42, P60953
cdc42_human CDC42, P60953, sequence (P60953 whole entry, looked up): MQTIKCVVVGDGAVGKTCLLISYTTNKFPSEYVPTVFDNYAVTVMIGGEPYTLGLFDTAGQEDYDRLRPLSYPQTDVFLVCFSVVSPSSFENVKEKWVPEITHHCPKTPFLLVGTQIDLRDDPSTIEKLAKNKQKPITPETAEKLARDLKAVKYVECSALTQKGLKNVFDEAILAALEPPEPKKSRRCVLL

Row | Variant | effect of a mutation on the interaction
1 | G168A | decreasing interaction
